In this test the target is human ST2.Fc (extracellular domain of ST2 fused to Fc) (human) (UniProt Q01638).
UniProt Q01638, sequence (Q01638 19-328): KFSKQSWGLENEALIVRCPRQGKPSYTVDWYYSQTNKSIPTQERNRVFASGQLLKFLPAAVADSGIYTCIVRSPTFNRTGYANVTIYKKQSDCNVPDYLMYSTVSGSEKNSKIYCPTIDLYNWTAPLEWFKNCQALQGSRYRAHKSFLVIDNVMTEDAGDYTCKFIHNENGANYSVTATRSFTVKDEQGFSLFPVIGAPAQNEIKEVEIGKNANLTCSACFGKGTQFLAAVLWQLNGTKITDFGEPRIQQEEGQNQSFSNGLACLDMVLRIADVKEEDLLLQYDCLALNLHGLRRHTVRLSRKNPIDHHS

“human IL-33 (amino acids 112-270), reduced form (from UniProt O95760 112-270) (ligand)”: the EC50 in a short duration signalling assay (NFκB p65/RelA translocation in HUVEC) is 0.15 nM.

B1: human IL-33 (112-270) complete Cys→Ser mutant (C208S, C227S, C232S and C259S) (ligand)
chain: SITGISPITEYLASLSTYNDQSITFALEDESYEIYVEDLKKDEKKDKVLLSYYESQHPSNESGDGVDGKMLMVTLSPTKDFWLHANNKEHSVELHKSEKPLPDQAFFVLHNMHSNSVSFESKTDPGVFIGVKDNHLALIKVDSSENLSTENILFKLSET
On to B1, for which the EC50 in a short duration signalling assay (NFκB p65/RelA translocation in HUVEC) came out at 0.15 nM.

The values above are taken from article PMC4579851.
